Results: paper PMC2848763, “The Puf family of RNA-binding proteins in plants: phylogeny, structural modeling, activity and subcellular localization”

How the values were obtained:
[1] = target: T1, GST-AtPum2 PUM-HD (Arabidopsis thaliana, UniProt Q9ZW06 614-963); experiment: EMSA; apparent Kd; 200 pM labelled RNA; 10 mM HEPES pH 7.4, 1 mM EDTA, 50 mM KCl, 1 mM DTT, 0.01% BSA, 0.01% Tween 20; room temperature 1 h; 6% native gel run at 4 C; conditions: protein: recombinant; tags: N-terminal GST (pGEX-6P-1); label: 5' 32P; single strand, 19 nt
T1 sequence: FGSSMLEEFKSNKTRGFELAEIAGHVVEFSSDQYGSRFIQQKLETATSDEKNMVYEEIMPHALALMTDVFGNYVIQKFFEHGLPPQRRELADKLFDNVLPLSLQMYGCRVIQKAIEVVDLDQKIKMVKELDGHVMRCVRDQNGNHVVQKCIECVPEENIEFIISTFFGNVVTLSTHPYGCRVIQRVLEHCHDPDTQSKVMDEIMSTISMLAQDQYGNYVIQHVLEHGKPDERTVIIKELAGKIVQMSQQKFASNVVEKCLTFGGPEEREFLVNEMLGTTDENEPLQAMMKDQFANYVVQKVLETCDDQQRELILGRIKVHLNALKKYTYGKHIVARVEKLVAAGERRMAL

[2] = target: T1, GST-AtPum2 PUM-HD; experiment: EMSA; estimated from free RNA; complex unstable, no accurate Kd; 10 mM HEPES pH 7.4, 1 mM EDTA, 50 mM KCl, 1 mM DTT, 0.01% BSA, 0.01% Tween 20; room temperature 1 h; 6% native gel run at 4 C; conditions: protein: recombinant; tags: N-terminal GST (pGEX-6P-1); label: 5' 32P; single strand, 19 nt

Binder | Kd [1] | Kd [2]
CCAGAAUUGUAUAUAUUCG (ssRNA) [wildtype NRE1 (hunchback NRE1 BoxB)] | 10.6 nM | 
CCAGAAUUUUAUAUAUUCG (ssRNA) [mutant NRE1 (G to U)] |  | ~354 nM
